Experimental data reported in patent US20020076693A1, “Novel cell surface receptor for HIV retroviruses, therapeutic and diagnostic uses” (priority 1997, published 2002).

B1: Rantes: β chemokine, natural ligand of CCR5 (protein, UniProt P13501 24-91, looked up)
C-C motif chemokine 5: SPYSSDTTPCCFAYIARPLPRAHIKEYFYTSGKCSNPAVVFVTRKNRQVCANPEKKWVREYINSLEMS
B2: MIP-1β: β chemokine (protein, UniProt P13236 24-92, looked up)
C-C motif chemokine 4: APMGSDPPTACCFSYTARKLPRNFVVDYYETSSLCSQPAVVFQTKRSKQVCADPSESWVQEYVYDLELN
B3: MIP-1α: β chemokine (protein, UniProt P10147 24-92, looked up)
C-C motif chemokine 3: SLAADTPTACCFSYTSRQIPQNFIADYFETSSQCSKPGVIFLTKRSRQVCADPSEEWVQKYVSDLELSA

System: HIV-1 Bal
Assay: Infection of human monocyte-derived macrophages by HIV-1 (p24)
Assay type: cell-based
Settings: HIV-1 BaL (TASP also Ada); p24 in supernatant
Procedure: Macrophages are infected with BaL or Ada HIV-1 viruses, in the presence of 2 μM, 1 μM or 0.1 μM of 5[Kψ (CH2N)PR]-TASP. Cells are preincubated during 30 min at 4° C. in the presence of 5[Kψ (CH2N)PR]-TASP before adding the virus. Every 3 days interval, the whole culture supernatant is collected and is replaced by RPMI 1640 culture medium supplemented with 20% fetal calf serum (FCS), 1% antibiotics, 1% glutamine, in addition to 5[Kψ (CH2N)PR]-TASP that is kept present in the culture medium until day 14 after in vitro infection. Virus production is quantitated by titration of p24 protein in the culture supernatant at different times (days) after in vitro infection. Each value represented in the graphs represents the mean of two test samples.
Macrophages are infected by the BaL VIH-1 virus in the presence of 100 μg/ml of anti-P95, anti-P40 and anti-P30 antibody. Cells are preincubated during 30 min at 4° C. in the presence of each kind of antibody before adding the virus. The antibodies are kept present in the culture medium during the whole infection period of time. The experimental conditions are identical to those detailed in 4 +L4. The results are representative of two independent experiments.
Cells are preincubated during 30 min at 4° C. in the presence of the different molecules either alone or in association before adding the virus. Every three days period, the whole culture supernatant is collected and is replaced by RPMI 1640 culture medium supplemented with 20% fetal calf serum (FCS), 1% antibiotics, 1% glutamine, in addition to each tested molecule. Virus production is quantitated by titration of p24 protein in the culture supernatant at different times (days) after in vitro infection. Every value reprented in the graphs represents the mean of two test samples.

Molecule | effect on infection of human macrophages by HIV-1
B1 | inhibit
B2 | inhibit
B3 | weaker inhibitory effect
